Data as given in patent publication US20240059797A1 (GRITSTONE BIO, published 2024).

Experiments:
[1] = biological target: HLA-A*02:01_… (HLA-PEPTIDE target G7), recombinant biotinylated complex (human, enzymatically biotinylated (BirA)); experiment: BLI, pHLA on sensor, Fab titrated, 1:1 model
[2] = biological target: T1, HLA-B*35:01_… (HLA-PEPTIDE target G5), recombinant biotinylated complex (human, enzymatically biotinylated (BirA)); experiment: scFv PPE ELISA
T1 construct: also called G5-pHLA

[3] = biological target: HLA-A*01:01_… (HLA-PEPTIDE target G10), recombinant biotinylated complex (human, enzymatically biotinylated (BirA)); experiment: scFv PPE ELISA
[4] = biological target: HLA-A*02:01_… (HLA-PEPTIDE target G8), recombinant complex (human, enzymatically biotinylated (BirA) for screening and functional assays); experiment: BLI, pHLA on sensor, Fab titrated, 1:1 model
Protocol: Binding affinity was assessed by bio-layer interferometry (BLI) using an Octet Qke (ForteBio). Briefly, biotinylated pHLA complexes in kinetics buffer were loaded onto streptavidin sensors for 300 seconds, at concentrations which gave the optimal nm shift response (approximately 0.6 nm) for each Fab at the highest concentration used. The ligand-loaded tips were subsequently equilibrated in the kinetics buffer for 120 seconds. The ligand-loaded biosensors were then dipped for 200 seconds in the Fab solution titrated into 2-fold dilutions. […] The dissociation step in the kinetics buffer was measured for 200 seconds. Data were analyzed using the ForteBio data analysis software using a 1:1 binding model.

B1: G7(2C02) Fab (Fab, V domains shown)
VH: QVQLVQSGAEVKKPGASMKVSCKASGYTFTTDGISWVRQAPGQGLEWMGRIYPHSGYTEYAKKFKGRVTMTRDTSTSTVYMELSSLRSEDTAVYYCARQDGGAFAFDIWGQGTMVTVSS
VL: DIQMTQSPSSLSASVGDRVTITCQASQDIFKYLNWYQQKPGKAPKLLIYAASTLQSGVPSRFSGSGSGTDFTLTISSLQPEDFATYYCQQSYSTPPTFGQGTRLEIK
notes: Fab
Kd [1]: 531 nM
koff [1]: 0.0543 s⁻¹
kon [1]: 104000 M⁻¹ s⁻¹

B2: G7(1A03) Fab (Fab, V domains shown)
VH: QVQLVQSGAEVKKPGASVKVSCKASGYTFTSQYMHWVRQAPGQGLEWMGWISPNNGDTNYAQKFQGRVTMTRDTSTSTVYMELSSLRSEDTAVYYCARELGYYYGMDVWGQGTTVTVSS
VL: DIQMTQSPSSLSASVGDRVTITCRASQSISTWLAWYQQKPGKAPKLLIYYASSLQSGVPSRFSGSGSGTDFTLTISSLQPEDFATYYCQQSYSFPYTFGQGTKVEIK
notes: Fab
Kd [1]: 532 nM
koff [1]: 0.0994 s⁻¹
kon [1]: 197000 M⁻¹ s⁻¹

B3: G7(2E09) Fab (Fab, V domains shown)
VH: QVQLVQSGAEVKKPGSSVKVSCKASRYTFTSYDINWVRQAPGQGLEWMGRIIPMLNIANYAPKFQGRVTITADESTSTAYMELSSLRSEDTAVYYCARALIFGVPLLPYGMDVWGQGTTVTVSS
VL: not shown
notes: Fab
Kd [1]: 11.8 nM
koff [1]: 0.00212 s⁻¹
kon [1]: 185000 M⁻¹ s⁻¹

B4: G5(1B12) scFv (scFv, V domains shown)
VH: EVQLLESGGGLVQPGGSLRLSCAASGFTFSNSDMNWVRQAPGKGLEWVASISSSGGYINYADSVKGRFTISRDNSKNTLYLQMNSLRAEDTAVYYCAKVNWNDGPYFDYWGQGTLVTVSS
VL: DIQMTQSPSSLSASVGDRVTITCRASQSISSWLAWYQQKPGKAPKLLIYAASSLQSGVPSRFSGSGSGTDFTLTISSLQPEDFATYYCQQANSFPLTFGGGTKVEIK
fold selective binding to target pHLA over minipool of negative control pHLAs [2]: ≥ 3 fold

B5: G5(1C12) scFv (scFv, V domains shown)
VH: QVQLVQSGAEVKKPGSSVKVSCKASGGTFSNFGVSWLRQAPGQGLEWMGGIIPILGTANYAQKFQGRVTITADESTSTAYMELSSLRSEDTAVYYCATPTNSGYYGPYYYYGMDVWGQGTTVTVSS
VL: DIQMTQSPSSLSASVGDRVTITCRASQSISSWLAWYQQKPGKAPKLLIYAASTLQSGVPSRFSGSGSGTDFTLTISSLQPEDFATYYCQQSYSIPLTFGGGTKVEIK
notes: also called G5-P1C12
fold selective binding to target pHLA over minipool of negative control pHLAs [2]: ≥ 3 fold

B6: G5(1E05) scFv (scFv, V domains shown)
VH: QVQLVQSGAEVKKPGASVKVSCKASGYTFTSYNMHWVRQAPGQGLEWMGWINPNSGGTNYAQKFQGRVTMTRDTSTSTVYMELSSLRSEDTAVYYCARDVMDVWGQGTTVTVSS
VL: DIQMTQSPSSLSASVGDRVTITCRASQGISNYLNWYQQKPGKAPKLLIYYASSLQSGVPSRFSGSGSGTDFTLTISSLQPEDFATYYCQQTYMMPYTFGQGTKVEIK
fold selective binding to target pHLA over minipool of negative control pHLAs [2]: ≥ 3 fold

B7: G5(3G01) scFv (scFv, V domains shown)
VH: QVQLVQSGAEVKKPGASVKVSCKASGGTFSGYLVSWVRQAPGQGLEWMGWINPNSGGTNTAQKFQGRVTMTRDTSTSTVYMELSSLRSEDTAVYYCAREGYGMDVWGQGTTVTVSS
VL: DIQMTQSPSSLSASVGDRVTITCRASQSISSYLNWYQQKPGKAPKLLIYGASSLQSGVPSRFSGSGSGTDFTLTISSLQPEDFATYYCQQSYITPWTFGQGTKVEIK
fold selective binding to target pHLA over minipool of negative control pHLAs [2]: ≥ 3 fold

B8: G5(3G08) scFv (scFv, V domains shown)
VH: QVQLVQSGAEVKKPGASVKVSCKASGYIFRNYPMHWVRQAPGQGLEWMGWINPDSGGTKYAQKFQGRVTMTRDTSTSTVYMELSSLRSEDTAVYYCARDNGVGVDYWGQGTLVTVSS
VL: DIQMTQSPSSLSASVGDRVTITCRASQGISNYLAWYQQKPGKAPKLLIYAASSLQSGVPSRFSGSGSGTDFTLTISSLQPEDFATYYCQQSYITPYTFGQGTKLEIK
fold selective binding to target pHLA over minipool of negative control pHLAs [2]: ≥ 3 fold

B9: G5(4B02) scFv (scFv, V domains shown)
VH: QVQLVQSGAEVKKPGASVKVSCKASGYTFTGYYMHWVRQAPGQGLEWMGWMNPNIGNTGYAQKFQGRVTMTRDTSTSTVYMELSSLRSEDTAVYYCARGIADSGSYYGNGRDYYYGMDVWGQGTTVTVSS
VL: DIVMTQSPDSLAVSLGERATINCKTSQSVLYRPNNENYLAWYQQKPGQPPKLLIYQASIREPGVPDRFSGSGSGTDFTLTISSLQAEDVAVYYCQQYYTTPYTFGQGTKLEIK
fold selective binding to target pHLA over minipool of negative control pHLAs [2]: ≥ 3 fold

B10: G5(4E04) scFv (scFv, V domains shown)
VH: QVQLVQSGAEVKKPGASVKVSCKASGGTFSSYGISWVRQAPGQGLEWMGWINPNSGVTKYAQKFQGRVTMTRDTSTSTVYMELSSLRSEDTAVYYCARGDYYFDYWGQGTLVTVSS
VL: DIQMTQSPSSLSASVGDRVTITCRASQSISRFLNWYQQKPGKAPKLLIYGASRPQSGVPSRFSGSGSGTDFTLTISSLQPEDFATYYCQQSYSTPLTFGQGTKVEIK
fold selective binding to target pHLA over minipool of negative control pHLAs [2]: ≥ 3 fold

B11: G5(1D06) scFv (scFv, V domains shown)
VH: QVQLVQSGAEVKKPGASVKVSCKASGYTFTSYDINWVRQAPGQGLEWMGWINPNSGDTKYSQKFQGRVTMTRDTSTSTVYMELSSLRSEDTAVYYCARDGTRYYGMDVWGQGTTVTVSS
VL: not shown
fold selective binding to target pHLA over minipool of negative control pHLAs [2]: ≥ 3 fold

B12: G5(1H11) scFv (scFv, V domains shown)
VH: EVQLLESGGGLVKPGGSLRLSCAASGFTFSDYYMSWVRQAPGKGLEWVSYISSSSSYTNYADSVKGRFTISRDDSKNTLYLQMNSLKTEDTAVYYCARDVVANFDYWGQGTLVTVSS
VL: EIVMTQSPATLSVSPGERATLSCRASQSVSSNLAWYQQKPGQAPRLLIYAASARASGIPARFSGSGSGTEFTLTISSLQSEDFAVYYCQQYGSWPRTFGQGTKVEIK
fold selective binding to target pHLA over minipool of negative control pHLAs [2]: ≥ 3 fold

B13: G5(2B10) scFv (scFv, V domains shown)
VH: QVQLVQSGAEVKKPGASVKVSCKASGGTFSSYAISWVRQAPGQGLEWMGWMNPDSGSTGYAQRFQGRVTMTRDTSTSTVYMELSSLRSEDTAVYYCARGHSSGWYYYYGMDVWGQGTTVTVSS
VL: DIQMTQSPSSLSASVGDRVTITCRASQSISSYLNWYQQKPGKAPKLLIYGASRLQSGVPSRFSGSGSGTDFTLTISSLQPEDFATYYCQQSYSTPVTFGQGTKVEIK
fold selective binding to target pHLA over minipool of negative control pHLAs [2]: ≥ 3 fold

B14: G5(3G05) scFv (scFv, V domains shown)
VH: QVQLVQSGAEVKKPGASVKVSCKASGYTFTNYYMHWVRQAPGQGLEWMGIINPSGGSTSYAQKFQGRVTMTRDTSTSTVYMELSSLRSEDTAVYYCARSWFGGFNYHYYGMDVWGQGTTVTVSS
VL: DIQMTQSPSSLSASVGDRVTITCQASEDISNHLNWYQQKPGKAPKLLIYDALSLQSGVPSRFSGSGSGTDFTLTISSLQPEDFATYYCQQANSFPFTFGPGTKVDIK
fold selective binding to target pHLA over minipool of negative control pHLAs [2]: ≥ 3 fold

B15: G5(4B01) scFv (scFv, V domains shown)
VH: QVQLVQSGAEVKKPGSSVKVSCKASGGTFSSYAISWVRQAPGQGLEWMGGIIPIVGTANYAQKFQGRVTITADESTSTAYMELSSLRSEDTAVYYCARGGSYYYYGMDVWGQGTTVTVSS
VL: not shown
fold selective binding to target pHLA over minipool of negative control pHLAs [2]: ≥ 3 fold

B16: G10(5C08) scFv (scFv, V domains shown)
VH: QVQLVQSGAEVKKPGASVKVSCKASGYNFTGYYMHWVRQAPGQGLEWMGIIAPSDGSTNYAQKFQGRVTMTRDTSTSTVYMELSSLRSEDTAVYYCARETGDDAFDIWGQGTMVTVSS
VL: not shown
fold selective binding to target pHLA over minipool of negative control pHLAs [3]: ≥ 3 fold

B17: G8(2C10) Fab (Fab, V domains shown)
VH: QVQLVQSGAEVKKPGASVKVSCKASGYTFTSYYMHWVRQAPGQGLEWMGWINPYSGGTNYAQKFQGRVTMTRDTSTSTVYMELSSLRSEDTAVYYCAKGGIYYGSGSYPSWGQGTLVTVSS
VL: DIQMTQSPSSLSASVGDRVTITCRASQDVSTWLAWYQQKPGKAPKLLIYAASSLQSGVPSRFSGSGSGTDFTLTISSLQPEDFATYYCQQSHSTPQTFGQGTKVEIK
notes: Fab
Kd [4]: 17.7 nM
koff [4]: 0.0013 s⁻¹
kon [4]: 75000 M⁻¹ s⁻¹

B18: G8(1C11) Fab (Fab, V domains shown)
VH: QVQLVQSGAEVKKPGASVKVSCKASGGTLSSYPINWVRQAPGQGLEWMGWISTYSGHADYAQKLQGRVTMTRDTSTSTVYMELSSLRSEDTAVYYCARSYDYGDYLNFDYWGQGTLVTVSS
VL: DIQMTQSPSSLSASVGDRVTITCQASQDISNYLNWYQQKPGKAPKLLIYAASSLQSGVPSRFSGSGSGTDFTLTISSLQPEDFATYYCQQSYSIPPTFGGGTKVDIK
notes: Fab; also called G8-P1C11
Kd [4]: 178 nM
koff [4]: 0.0338 s⁻¹
kon [4]: 190000 M⁻¹ s⁻¹

B19: G8(2E04) Fab (Fab, V domains shown)
VH: QVQLVQSGAEVKKPGSSVKVSCKASGGTFSSYGVSWVRQAPGQGLEWMGWISPYSGNTDYAQKFQGRVTITADESTSTAYMELSSLRSEDTAVYYCARGLYYMDVWGKGTTVTVSS
VL: DIQMTQSPSSLSASVGDRVTITCRASQSISSWLAWYQQKPGKAPKLLIYDASNLETGVPSRFSGSGSGTDFTLTISSLQPEDFATYYCQQSYSTPLTFGGGTKLEIK
notes: Fab
Kd [4]: 286 nM
koff [4]: 0.0789 s⁻¹
kon [4]: 545000 M⁻¹ s⁻¹
